Results as given in patent US20190153113A1, “CD39 VASCULAR ISOFORM TARGETING AGENTS” (INNATE PHARMA, priority 2015, published 2019).
Positions count from the first letter of the chain named. Names and notes keep the numbering of the source.

T1: CD39 mutant 5 (Q96A, N99A, E143A, R147E) (human, UniProt P49961 1-510)
T1 construct: Transfected in HEK293T cells
T1 chain: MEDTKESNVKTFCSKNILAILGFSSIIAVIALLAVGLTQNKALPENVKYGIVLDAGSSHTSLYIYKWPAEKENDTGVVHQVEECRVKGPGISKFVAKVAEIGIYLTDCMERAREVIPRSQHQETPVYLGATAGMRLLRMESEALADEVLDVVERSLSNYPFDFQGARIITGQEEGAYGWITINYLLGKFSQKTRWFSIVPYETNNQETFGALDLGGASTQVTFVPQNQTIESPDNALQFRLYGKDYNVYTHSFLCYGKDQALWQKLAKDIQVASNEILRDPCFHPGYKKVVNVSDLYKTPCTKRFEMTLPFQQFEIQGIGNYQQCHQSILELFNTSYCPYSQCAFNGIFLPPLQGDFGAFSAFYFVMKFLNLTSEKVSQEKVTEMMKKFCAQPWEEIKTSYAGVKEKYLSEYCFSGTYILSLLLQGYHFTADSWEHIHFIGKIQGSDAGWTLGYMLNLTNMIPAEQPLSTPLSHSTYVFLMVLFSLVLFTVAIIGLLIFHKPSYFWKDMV

T2: CD39 mutant 2A (V81S, E82A, R111A, V115A) (human, UniProt P49961 1-510)
T2 construct: Transfected in HEK293T cells
T2 chain: T1 chain with V81S, E82A, A96Q, A99N, R111A, V115A, A143E, E147R

T3: CD39 (Homo sapiens, UniProt P49961)
T3 construct: cells that endogenously express CD39 at their surface, e.g. regulatory T (TReg) cells, B cells, cancer cells, lymphoma cells (e.g. Ramos cells); endogenous in cells; host or cells: Ramos human lymphoma cells
T3 sequence (P49961 1-510): T1 chain with A96Q, A99N, A143E, E147R

B1: Antibody I-391, Fc silent recombinant chimeric human IgG1 with heavy chain N297Q mutation (antibody, V domains shown)
VH: QIQLVQSGPELKKPGETVKISCKASGYTFRNYGMNWVKQAPGKGLKWMGWINTYTGEPTYADDFKGRFAFSLATSASTAYLQISNLKNEDTATYFCARKAYYGSNYYFDYWGQGTTLTVSS
VL: DIVMTQSHKFMSTSVGDRVSITCKASQDVSTAVAWYQQKPGQSPKLLIYSASYRYTGVPDRFTGSGSGTDFTFTISTVQAEDLAVYYCQQHYTTPPYTFGGGTKLEIKR
B2: I-392: anti-CD39 antibody, VH SEQ ID NO: 8 and VL SEQ ID NO: 9, chimeric human IgG1 with N297Q mutation (antibody, V domains shown)
VH: QIQLVQSGPEVKKPRETVKISCKASGYTFTHYGMNWVKQAPGKGLKWMGWINTYTGEPTYADDFKGRFAFSLEASASTAYLQINNLKNEDTATYFCARRRYEGNYVFYYFDYWGQGTTLTVSS
VL: DIQMTQSPASLSASVGETVTITCRASENIYSYFSWYQQKQGKSPQLLVYTAKTLAEGVPSRFSGSGSGTQFSLKINSLQPEDFGSYYCQHHYVTPYTFGGGTKLEIK

What was measured:
[1] = biological target: T1, CD39 mutant 5 (Q96A, N99A, E143A, R147E); experiment: flow cytometry on transfected HEK293T cells
[2] = biological target: T2, CD39 mutant 2A (V81S, E82A, R111A, …); experiment: flow cytometry, HEK293T cells transfected with mutant 2A
CD39 = biological target: T3, CD39; experiment: Inhibition of CD39 enzymatic activity in Ramos cells, AMP production by Maldi TOF mass spectrometry; type: cell-based
Protocol: The inhibition of CD39 enzymatic activity by antibodies was evaluated by Maldi TOF mass spectrometry (production of AMP). This assay represents an assay that is relatively insensitive to down-modulation of CD39 expression. […] After washes, cells were incubated with anti-CD39 antibodies, isotype control, or ARL and 50 μM ATP for 30 minutes at 4° C. in PBS. AMP generated is quantified in supernatants by Maldi TOP.
The inhibition of CD39 enzymatic activity by antibodies was evaluated by Maldi TOF mass spectrometry (production of AMP). Briefly, 10^5 Ramos human lymphoma cells were incubated overnight at 37° C. with anti-CD39 antibodies or a chemical CD39 inhibitor (ARL 100 μM). After washes, cells were incubated with anti-CD39 antibodies, isotype control, or ARL and 50 μM ATP for 30 minutes at 4° C. in PBS. AMP generated is quantified in supernatants by Maldi TOP. Antibodies were used at 33 nM and ARL at […].

Molecule | binding result [1] | binding result [2] | maximum inhibition achieved (CD39; Ramos cells, 50 μM ATP) [%] | blocking CD39 enzymatic activity (CD39; Ramos cells, Example 6) | EC50 (CD39; read-out: EC50 (inhibition of 50% of the enzymatic activity of CD39), 100,000 Ramos cells, 50 μM ATP, n=3) [nM]
B1 | no binding (tested: dose range 10 to 0.0006 µg/ml) | binds | – | – | –
B2 | – | – | 93.4 | very potent at blocking CD39 enzymatic activity | 1.2
